Measurements: US20130142732, “RECOMBINANT FLUORESCENT NANOPARTICLES” (KOREA UNIVERSITY RESEARCH AND BUSINESS FOUNDATION, published 2013)

What was measured:
PDGF-BB [1] = target: T1, PDGF-BB (UniProt P01127 P01127:82-190); test: printed as 5.0 x 1011 mol/L, exponent sign lost; sandwich plate assay with biotin-aptamer capture, PBS, 37 C, linearized Langmuir; conditions: tags: Sigma-Aldrich; chain copies: 2 (homodimer, inferred); label: Cy3
Method: (§1) On the Basis of the linearized form of the Langmur absorption isotherm and the linear curve of FIG. 5C, the dissociation constants (KD) were determined by a PDGF-BB analysis method using each of the DNA-aptamer-conjugated gFFNP, eGFP, and Cy3, and the results are shown in Table 7.

PDGF-BB [2] = target: T1, PDGF-BB; test: printed as 4.0 x 1011 mol/L, exponent sign lost; sandwich plate assay with biotin-aptamer capture, PBS, 37 C, linearized Langmuir; conditions: tags: Sigma-Aldrich; chain copies: 2 (homodimer, inferred); label: eGFP
Method: as §1

T1 sequence (P01127 82-190, one chain of several): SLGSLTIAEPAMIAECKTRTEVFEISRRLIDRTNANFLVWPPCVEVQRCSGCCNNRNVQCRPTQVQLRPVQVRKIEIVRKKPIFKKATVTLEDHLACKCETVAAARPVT

| Binder | Kd (PDGF-BB [1]) [pM] | Kd (PDGF-BB [2]) [pM] |
| --- | --- | --- |
| CACAGGCTACGGCACGTAGAGCATCACCATGATCCTGTGT (ssDNA, 5'-Cy3) [PDGF-BB DNA aptamer Cy3-modified] | 50 |  |
| CACAGGCTACGGCACGTAGAGCATCACCATGATCCTGTGT (ssDNA, 5'-NH2-(CH2)6, SSMCC-coupled to eGFP(S175C)) [PDGF-BB DNA aptamer conjugated to eGFP] |  | 40 |
